Series [1] addresses wild-type human RANTES (hRANTES) (human). Nature of the series: sedimentation equilibrium AUC in PBS, 0.1 mg/ml; self-association (monomer 7850 Da).
The target of series [2] is T-cell receptor complex (tyrosine kinase pathway) on CD3+ Jurkat cells and cultured human T lymphocytes (human). The settings on record: scale: % of cells expressing the cell surface marker.
In series [3] the target is cell-surface proteoglycans. As to the kind of experiment: radioligand binding, 0.125 nM 125I-hRANTES on CHO cells, filter harvest.
Series [4] concerns the molecule itself. As to the kind of experiment: sedimentation equilibrium AUC in PBS, 0.5 mg/ml; self-association. As to the method:
Mutagenesis of pERM1 was performed according to the method of Kunkel et al., (Methods in Enzymology, 154: 367–382; 1987). The oligonucleotides BB-35875 (SEQ ID NO. 14; 5'-[…] […] GTGG-3') and BB-37015 (SEQ ID No. 15; 5'-[…] ACATTGA-CAA […]-3') were used to construct the hRANTES Glu26>Ala and Glu66>Ser variant genes respectively. A combination of both BB-35875 and BB-37015 was used to […]. The samples were spun at 15,000 r.p.m., 25° C. for 18 hours to reach equilibrium. Final solute distributions were recorded at 235 nm, 280 nm and 295 nm as a function of radius. The scan was repeated after a further three hours of centrifugation to confirm that equilibrium had been achieved. The final solute distribution ASCII data were captured and the Microcal Origin software for the Beckman XLA analytical ultracentrifuge was used to fit the data to a model assuming a single ideal species (Ideal1) to provide an estimate of the weight average molecular weight.

In series [5] the target is T-cell receptor complex (tyrosine kinase pathway) on CD3+ Jurkat cells and cultured human T lymphocytes (human).
The target in series [6] is cell-surface proteoglycans. Nature of the series: radioligand binding, 0.2 nM 125I-hRANTES E66>S on CHO cells, filter harvest.
Series [7] has as its target G-protein coupled receptors (GPCRs) through which hRANTES acts.

Where a chain is given by its changes, count along the chain named. Several values for one entry are separate records, joined by “and”; a condition that tells them apart may be missing. Equal entries are not always repeated.

“wild-type human RANTES (hRANTES) (ligand)” came in with an Average molecular weight by AUC (Da) in series [1] above 160000 Da.

B1: wild-type human RANTES (hRANTES) (ligand)
chain: SPYSSDTTPCCFAYIARPLPRAHIKEYFYTSGKCSNPAVVFVTRKNRQVCANPEKKWVREYINSLEMS
For B1, in series [2], the % of cells expressing the cell surface marker (CD69, CD11b, CD11c) on cultured human T lymphocytes, 5 µM is 99.1. This molecule had a total counts bound in series [3] of 5730 cpm.

B2: hRANTES E26>A E66>S (ligand)
chain: B1 chain with E26A, E66S
Consider B2, for which the “Average molecular weight by AUC (Da)” value in series [4] is 15000 Da.

B3: hRANTES E66>S (ligand)
chain: B1 chain with E66S
Consider B3, for which the % of cells expressing the cell surface marker (CD69, CD11b, CD11c) on cultured human T lymphocytes, 5 µM in series [2] was determined as 0.39. Also, in series [5], the calcium mobilisation in CD3+ Jurkat cells turned out to be 200 fold. Besides, the “Average molecular weight by AUC (Da)” value in series [4] was determined as 14000 Da. In addition, in series [6], the total counts bound stood at 18300 cpm.

B4: hRANTES E26>A (ligand)
chain: B1 chain with E26A
In the case of B4, the IC50 of p24 antigen production by PBMC infected with HIV-1 RR in series [7] was 28 nM and 0.22 µg/ml. For the same molecule, in series [4], the “Average molecular weight by AUC (Da)” value stood at 33000 Da.

The values above are taken from US5965697, “Disaggregated mutant human RANTES” (British Biotech Pharmaceuticals Limited, dated 1999).
